Data as given in IntAct's records for PubMed 35512704.

B1: Speckle-type POZ protein (Homo sapiens), O43791 (parent)
chain: MSRVPSPPPPAEMSSGPVAESWCYTQIKVVKFSYMWTINNFSFCREEMGEVIKSSTFSSGANDKLKWCLRVNPKGLDEESKDYLSLYLLLVSCPKSEVRAKFKFSILNAKGEETKAMESQRAYRFVQGKDWGFKKFIRRDFLLDEANGLLPDDKLTLFCEVSVVQDSVNISGQNTMNMVKVPECRLADELGGLWENSRFTDCCLCVAGQEFQAHKAILAARSPVFSAMFEHEMEESKKNRVEINDVEPEVFKEMMCFIYTGKAPNLDKMADDLLAAADKYALERLKVMCEDALCSNLSVENAAEILILADLHSADQLKTQAVDFINYHASDVLETSGWKSMVVSHPHLVAEAYRSLASAQCPFLGPPRKRLKQS
partner: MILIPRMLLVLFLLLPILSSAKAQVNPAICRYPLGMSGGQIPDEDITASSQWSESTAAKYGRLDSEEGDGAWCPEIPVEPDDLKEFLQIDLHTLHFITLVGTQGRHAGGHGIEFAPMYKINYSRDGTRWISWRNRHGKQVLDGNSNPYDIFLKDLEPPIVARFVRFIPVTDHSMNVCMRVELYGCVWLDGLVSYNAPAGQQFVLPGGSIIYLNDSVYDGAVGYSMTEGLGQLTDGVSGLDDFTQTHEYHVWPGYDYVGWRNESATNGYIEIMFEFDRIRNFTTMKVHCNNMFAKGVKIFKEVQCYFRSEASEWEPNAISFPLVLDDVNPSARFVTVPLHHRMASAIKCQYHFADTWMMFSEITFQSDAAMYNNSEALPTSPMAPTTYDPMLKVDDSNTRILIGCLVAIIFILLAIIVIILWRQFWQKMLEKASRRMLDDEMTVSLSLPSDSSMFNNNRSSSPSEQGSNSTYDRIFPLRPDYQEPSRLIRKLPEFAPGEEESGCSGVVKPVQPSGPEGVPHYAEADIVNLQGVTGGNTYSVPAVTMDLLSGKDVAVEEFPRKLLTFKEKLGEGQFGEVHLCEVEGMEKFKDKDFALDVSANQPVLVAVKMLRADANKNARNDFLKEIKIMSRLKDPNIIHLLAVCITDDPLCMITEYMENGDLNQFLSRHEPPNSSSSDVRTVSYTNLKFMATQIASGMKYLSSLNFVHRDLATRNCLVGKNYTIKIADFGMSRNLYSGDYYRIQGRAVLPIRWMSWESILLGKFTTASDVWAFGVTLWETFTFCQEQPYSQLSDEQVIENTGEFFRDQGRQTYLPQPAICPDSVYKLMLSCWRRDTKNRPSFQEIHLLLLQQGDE
B2: Speckle-type POZ protein (Homo sapiens), O43791 (parent)
chain: B1 chain
partner: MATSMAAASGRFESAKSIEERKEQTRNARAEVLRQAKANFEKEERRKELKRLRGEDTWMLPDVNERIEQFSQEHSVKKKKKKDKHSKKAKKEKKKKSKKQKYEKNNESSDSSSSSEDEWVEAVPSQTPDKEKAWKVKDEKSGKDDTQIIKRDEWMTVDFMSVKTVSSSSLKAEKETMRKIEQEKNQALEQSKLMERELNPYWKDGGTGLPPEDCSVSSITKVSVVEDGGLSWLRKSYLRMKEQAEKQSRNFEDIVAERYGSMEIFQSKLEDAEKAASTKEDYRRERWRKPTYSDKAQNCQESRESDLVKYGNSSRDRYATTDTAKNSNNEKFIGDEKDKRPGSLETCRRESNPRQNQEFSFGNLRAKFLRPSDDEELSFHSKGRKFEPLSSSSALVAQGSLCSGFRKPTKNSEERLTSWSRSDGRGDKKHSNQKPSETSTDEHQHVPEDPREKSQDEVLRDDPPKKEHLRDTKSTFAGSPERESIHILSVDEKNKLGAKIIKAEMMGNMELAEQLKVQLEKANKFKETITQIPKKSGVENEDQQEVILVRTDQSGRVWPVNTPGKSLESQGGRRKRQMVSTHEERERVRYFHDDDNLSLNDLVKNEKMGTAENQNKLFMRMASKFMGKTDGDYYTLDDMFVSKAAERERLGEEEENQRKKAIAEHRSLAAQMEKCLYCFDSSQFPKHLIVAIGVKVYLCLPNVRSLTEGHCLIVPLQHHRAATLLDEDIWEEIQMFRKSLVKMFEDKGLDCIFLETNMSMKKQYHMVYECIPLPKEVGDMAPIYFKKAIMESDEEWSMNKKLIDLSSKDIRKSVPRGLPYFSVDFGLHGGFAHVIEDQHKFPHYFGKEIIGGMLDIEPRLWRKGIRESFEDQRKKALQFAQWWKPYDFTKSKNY

Variants of: B1
Details: with ddr2_human DDR2, Q16832

Variant | effect of a mutation on the interaction
MSRVPSPPPPAEMSSGPVAESWCYTQIKVVKFSYMWTINNFSFCREEMGEVIKSSTFSSGANDKLKWCLRVNPKGLDEESKDYLSLYLLLVSCPKSEVRAKCKFSILNAKGEETKAMESQRAYRFVQGKDWGFKKFIRRDFLLDEANGLLPDDKLTLFCEVSVVQDSVNISGQNTMNMVKVPECRLADELGGLWENSRFTDCCLCVAGQEFQAHKAILAARSPVFSAMFEHEMEESKKNRVEINDVEPEVFKEMMCFIYTGKAPNLDKMADDLLAAADKYALERLKVMCEDALCSNLSVENAAEILILADLHSADQLKTQAVDFINYHASDVLETSGWKSMVVSHPHLVAEAYRSLASAQCPFLGPPRKRLKQS [F102C] | with no effect

Variants of: B1
Details: with ddr2_human DDR2, Q16832
Remark: another data set of the same source

Variant | effect of a mutation on the interaction
MSRVPSPPPPAEMSSGPVAESWCYTQIKVVKFSYMWTINNFSFCREEMGEVIKSSTFSSGANDKLKWCLRVNPKGLDEESKDYLSLYLLLVSCPKSEVRAKFKFSILNAKGEETKAMESQRAYRFVQGKDWGVKKFIRRDFLLDEANGLLPDDKLTLFCEVSVVQDSVNISGQNTMNMVKVPECRLADELGGLWENSRFTDCCLCVAGQEFQAHKAILAARSPVFSAMFEHEMEESKKNRVEINDVEPEVFKEMMCFIYTGKAPNLDKMADDLLAAADKYALERLKVMCEDALCSNLSVENAAEILILADLHSADQLKTQAVDFINYHASDVLETSGWKSMVVSHPHLVAEAYRSLASAQCPFLGPPRKRLKQS [F133V] | with no effect

Variants of: B1
Details: with ddr2_human DDR2, Q16832
Remark: another data set of the same source

Variant | effect of a mutation on the interaction
MSRVPSPPPPAEMSSGPVAESWCYTQIKVVKFSYMWTINNFSFCREEMGEVIKSSTFSSGANDKLKWCLRVNPKGLDEESKDYLSLYLLLVSCPKSEVRAKFKFSILNAKGEETKAMESQRAYRFVQGKDWGLKKFIRRDFLLDEANGLLPDDKLTLFCEVSVVQDSVNISGQNTMNMVKVPECRLADELGGLWENSRFTDCCLCVAGQEFQAHKAILAARSPVFSAMFEHEMEESKKNRVEINDVEPEVFKEMMCFIYTGKAPNLDKMADDLLAAADKYALERLKVMCEDALCSNLSVENAAEILILADLHSADQLKTQAVDFINYHASDVLETSGWKSMVVSHPHLVAEAYRSLASAQCPFLGPPRKRLKQS [F133L] | with no effect

Variants of: B1
Details: with ddr2_human DDR2, Q16832
Remark: another data set of the same source

Variant | effect of a mutation on the interaction
MSRVPSPPPPAEMSSGPVAESWCYTQIKVVKFSYMWTINNFSFCREEMGEVIKSSTFSSGANDKLKWCLRVNPKGLDEESKDYLSLCLLLVSCPKSEVRAKFKFSILNAKGEETKAMESQRAYRFVQGKDWGFKKFIRRDFLLDEANGLLPDDKLTLFCEVSVVQDSVNISGQNTMNMVKVPECRLADELGGLWENSRFTDCCLCVAGQEFQAHKAILAARSPVFSAMFEHEMEESKKNRVEINDVEPEVFKEMMCFIYTGKAPNLDKMADDLLAAADKYALERLKVMCEDALCSNLSVENAAEILILADLHSADQLKTQAVDFINYHASDVLETSGWKSMVVSHPHLVAEAYRSLASAQCPFLGPPRKRLKQS [Y87C] | with no effect

Variants of: B2
Details: with CWF19L2, Q2TBE0

Variant | effect of a mutation on the interaction
MSRVPSPPPPAEMSSGPVAESWCYTQIKVVKFSYMWTINNFSFCREEMGEVIKSSTFSSGANDKLKWCLRVNPKGLDEESKDYLSLCLLLVSCPKSEVRAKFKFSILNAKGEETKAMESQRAYRFVQGKDWGFKKFIRRDFLLDEANGLLPDDKLTLFCEVSVVQDSVNISGQNTMNMVKVPECRLADELGGLWENSRFTDCCLCVAGQEFQAHKAILAARSPVFSAMFEHEMEESKKNRVEINDVEPEVFKEMMCFIYTGKAPNLDKMADDLLAAADKYALERLKVMCEDALCSNLSVENAAEILILADLHSADQLKTQAVDFINYHASDVLETSGWKSMVVSHPHLVAEAYRSLASAQCPFLGPPRKRLKQS [Y87C] | with no effect

Variants of: B2
Details: with CWF19L2, Q2TBE0
Remark: another data set of the same source

Variant | effect of a mutation on the interaction
MSRVPSPPPPAEMSSGPVAESWCYTQIKVVKFSYMWTINNFSFCREEMGEVIKSSTFSSGANDKLKWCLRVNPKGLDEESKDYLSLYLLLVSCPKSEVRAKFKFSILNAKGEETKAMESQRAYRFVQGKDWGLKKFIRRDFLLDEANGLLPDDKLTLFCEVSVVQDSVNISGQNTMNMVKVPECRLADELGGLWENSRFTDCCLCVAGQEFQAHKAILAARSPVFSAMFEHEMEESKKNRVEINDVEPEVFKEMMCFIYTGKAPNLDKMADDLLAAADKYALERLKVMCEDALCSNLSVENAAEILILADLHSADQLKTQAVDFINYHASDVLETSGWKSMVVSHPHLVAEAYRSLASAQCPFLGPPRKRLKQS [F133L] | with no effect

Variants of: B2
Details: with CWF19L2, Q2TBE0
Remark: another data set of the same source

Variant | effect of a mutation on the interaction
MSRVPSPPPPAEMSSGPVAESWCYTQIKVVKFSYMWTINNFSFCREEMGEVIKSSTFSSGANDKLKWCLRVNPKGLDEESKDYLSLYLLLVSCPKSEVRAKFKFSILNAKGEETKAMESQRAYRFVQGKDWGVKKFIRRDFLLDEANGLLPDDKLTLFCEVSVVQDSVNISGQNTMNMVKVPECRLADELGGLWENSRFTDCCLCVAGQEFQAHKAILAARSPVFSAMFEHEMEESKKNRVEINDVEPEVFKEMMCFIYTGKAPNLDKMADDLLAAADKYALERLKVMCEDALCSNLSVENAAEILILADLHSADQLKTQAVDFINYHASDVLETSGWKSMVVSHPHLVAEAYRSLASAQCPFLGPPRKRLKQS [F133V] | with no effect

Variants of: B2
Details: with CWF19L2, Q2TBE0
Remark: another data set of the same source

Variant | effect of a mutation on the interaction
MSRVPSPPPPAEMSSGPVAESWCYTQIKVVKFSYMWTINNFSFCREEMGEVIKSSTFSSGANDKLKWCLRVNPKGLDEESKDYLSLYLLLVSCPKSEVRAKCKFSILNAKGEETKAMESQRAYRFVQGKDWGFKKFIRRDFLLDEANGLLPDDKLTLFCEVSVVQDSVNISGQNTMNMVKVPECRLADELGGLWENSRFTDCCLCVAGQEFQAHKAILAARSPVFSAMFEHEMEESKKNRVEINDVEPEVFKEMMCFIYTGKAPNLDKMADDLLAAADKYALERLKVMCEDALCSNLSVENAAEILILADLHSADQLKTQAVDFINYHASDVLETSGWKSMVVSHPHLVAEAYRSLASAQCPFLGPPRKRLKQS [F102C] | with no effect
